From PMC5454392, “Selective BET bromodomain inhibition as an antifungal therapeutic strategy” (Nature Communications, 2017)
Numbered stars: 1 amine (or outer) side, 2 acyl side, 3 side chain; on linkers, the order of the positions; unused ones are H or OH. Square brackets hold non-standard residues; d marks the D form. Ends that are not written are not given here. Arg(Me2a) = CN(C)C(=N)NCCC[C@H](N)C(=O)O; Kac = CC(=O)NCCCC[C@H](N[*:1])C(=O)[*:2]; Lys(Me3) = C[N+](C)(C)CCCC[C@H](N)C(=O)O; Arg(Me2s) = CN=C(NC)NCCC[C@H](N)C(=O)O; Lys(Me2) = CN(C)CCCC[C@H](N)C(=O)O; Lys(Me) = CNCCCC[C@H](N)C(=O)O; Me2a = not defined here; me2a = not defined here

Key:
[1] = target: T1, CaBdf1 BD1 (GST-tagged, wild-type) (Candida albicans (strain SC5314 / ATCC …, UniProt Q5A4W8)); test: histone peptide array (Active Motif MODified), 1 uM GST-tagged bromodomain, anti-GST detection, normalized mean intensity
T1 chain: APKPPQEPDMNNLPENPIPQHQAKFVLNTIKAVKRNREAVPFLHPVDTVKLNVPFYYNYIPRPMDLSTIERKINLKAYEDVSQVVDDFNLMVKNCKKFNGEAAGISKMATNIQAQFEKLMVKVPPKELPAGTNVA

[2] = target: T2, CaBdf1 BD2 (GST-tagged, wild-type) (Candida albicans (strain SC5314 / ATCC …, UniProt Q5A4W8)); test: as above
T2 chain: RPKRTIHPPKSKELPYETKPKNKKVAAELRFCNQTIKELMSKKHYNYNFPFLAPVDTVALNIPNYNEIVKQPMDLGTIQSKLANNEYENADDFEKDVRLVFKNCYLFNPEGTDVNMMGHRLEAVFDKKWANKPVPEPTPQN

Row | Binder | binding score [1] | binding score [2]
1 | ARTK(Me2)QTARKSTGGKAPRKQ | 0.00181 | 0.00148
2 | SGRGKGGKGLGKGGAKRHR (S G R G Kac G G Kac G L G Kac G G A K R H R) | 0.0729 | 0.179
3 | SGRGKGGKGLGKGGAKRHR (S G Rme2s G K G G Kac G L G K G G A K R H R) | 0.0152 | 0.00777
4 | ARTKQTARKSTGGKAPRKQ (A Rme2s T Kme2 Q T A Rme2s Kme1 S T G G K A P R K Q) | 0.00544 | 0.00407
5 | PRKQLATKAAR(Me2s)K(Me2)SAPATGG [H3 16-35] | 0.00254 | 0.00222
6 | ARTKQTARKSTGGKAPRKQ (A Rme2s T Kme2 Q T A Rme2s Kac S T G G K A P R K Q) | 0.0239 | 
7 | ARTKQTARKSTGGKAPRKQ (A Rme2a T Kme3 Q T A Rme2s Kme3 S T G G K A P R K Q) | 0.00508 | 
8 | ARTKQTARKSTGGKAPRKQ (A Rme2s T Kme2 Q T A R Kme3 S T G G K A P R K Q) | 0.00145 | 
9 | ARTKQTARKSTGGKAPRKQ (A Rme2s T Kme3 Q T A R Kme3 S T G G K A P R K Q) | 0.00254 | 
10 | ARTKQTARKSTGGKAPRKQ (A R T K Q T A R Kme2 S T G G Kac A P R K Q) | 0.0315 | 
11 | ARTKQTARKSTGGKAPRKQ (A Rme2s T Kme1 Q T A Rme2a Kac S T G G K A P R K Q) | 0.0381 | 
12 | A[Arg(Me2a)]T[Lys(Me)]QTA[Arg(Me2a)][Lys(Me2)]STGGKAPRKQ | 0.0029 | 
13 | ARTKQTARKSTGGKAPRKQ (A R T Kme3 Q T A Rme2s Kac S T G G K A P R K Q) | 0.0286 | 
14 | ARTKQTARKSTGGKAPRKQ (A Rme2a T Kac Q T A Rme2s Kac S T G G K A P R K Q) | 0.0334 | 
15 | ARTKQTARKSTGGKAPRKQ (A Rme2s T Kme1 Q T A Rme2s Kme1 S T G G K A P R K Q) | 0.00326 | 
16 | ARTKQTARKSTGGKAPRKQ (A Rme2s T Kme1 Q T A Rme2s K S T G G K A P R K Q) | 0.00326 | 
17 | ARTKQTARKSTGGKAPRKQ (A R T Kme1 Q T A Rme2a Kac S T G G K A P R K Q) | 0.0257 | 
18 | ARTKQTARKSTGGKAPRKQ (A R T K Q T A R Kac S pT G G K A P R K Q) | 0.00544 | 
19 | ARTKQTARKSTGGKAPRKQ (A Rme2a T Kme2 Q T A Rme2a Kme3 S T G G K A P R K Q) | 0.00254 | 
20 | A[Arg(Me2s)]T[Lys(Me2)]QTAR[Lys(Me)]STGGKAPRKQ | 0.00544 | 
21 | ARTKQTARKSTGGKAPRKQ (A R T Kme1 Q T A Rme2s Kac S T G G K A P R K Q) | 0.0305 | 
22 | ARTKQTARKSTGGK(Ac)APRKQ | 0.0319 | 

Row | Binder | binding score [1] | binding score [2]
23 | ARTKQTARKSTGGKAPRKQ (A R T Kme3 Q T A Rme2s Kme1 S T G G K A P R K Q) | 0.00471 | 
24 | AR(Me2s)TK(Me3)QTAR(Me2s)K(Ac)STGGKAPRKQ | 0.017 | 
25 | A[Arg(Me2a)]T[Lys(Me3)]QTAR[Kac]STGGKAPRKQ | 0.0344 | 
26 | ARTKQTARKSTGGKAPRKQ (A Rme2a T Kme2 Q T A Rme2a Kac S T G G K A P R K Q) | 0.0395 | 
27 | ARTK(me3)QTAR(me2a)K(me3)STGGKAPRKQ (reading uncertain) | 0.00508 | 
28 | AR(me2s)TK(Ac)QTAR(me2a)K(me2)STGGKAPRKQ (reading uncertain) | 0.00979 | 
29 | ARTK(Ac)QTAR(me2s)K(Ac)STGGKAPRKQ | 0.0729 | 
30 | AR(me2a)TK(Ac)QTAR(me2a)K(me2)STGGKAPRKQ (reading uncertain) |  | 0.00703
31 | AR(me2s)TK(me2)QTAR(me2s)K(me3)STGGKAPRKQ | 0.00218 | 
32 | ARTKQTARKSTGGKAPRKQ (A R T K Q T A Rme2a Kac S pT G G K A P R K Q) | 0.00363 | 
33 | AR(Me2s)TK(Me3)QTAR(Me2s)K(Me3)STGGKAPRKQ | 0.00653 | 
34 | AR(Me2a)TK(Me2)QTAR(Me2s)K(Me3)STGGKAPRKQ (reading uncertain) | 0.00145 | 
35 | A[Arg(Me2a)]TK(Ac)QTA[Arg(Me2a)][Lys(Me3)]STGGKAPRKQ | 0.00834 | 
36 | ARTK(Me)QTAR(Me2a)K(Me2)STGGKAPRKQ (reading uncertain) | 0.0138 | 
37 | ARTKQTARKSTGGKAPRKQ (A R T K Q T A R K S pT G G Kac A P R K Q) |  | 0.00999
38 | A[Arg(Me2a)]T[Lys(Me3)]QTA[Arg(Me2a)][Lys(Me2)]STGGKAPRKQ | 0.00254 | 
39 | ARTKQTARKSTGGKAPRKQ (A R T K Q T A R Kme1 pS T G G K A P R K Q) | 0.00181 | 
40 | ARTKQTARKSTGGKAPRKQ (A Rme2s T Kme3 Q T A Rme2s Kme1 S T G G K A P R K Q) | 0.00363 | 
41 | ARTKQTARKSTGGKAPRKQ (A Rme2s T Kac Q T A Rme2s K S T G G K A P R K Q) | 0.00363 | 
42 | ARTKQTARKSTGGKAPRKQ (A R T K Q T A Rme2a Kme2 S pT G G K A P R K Q) | 0.00435 | 
43 | ARTKQTARKSTGGKAPRKQ (A R T Kme2 Q T A Rme2s Kme2 S T G G K A P R K Q) | 0.00218 | 
44 | ARTKQTARKSTGGKAPRKQ (A Rme2a T Kac Q T A Rme2s Kme2 S T G G K A P R K Q) | 0.00616 | 
